Legend:
[1] = molecular target: T1, human plasma kallikrein (human, UniProt P03952 20-390; P03952 391-638); experiment: apparent inhibition constant (Ki,app) against human pKal, enzyme inhibition
T1 construct: also called pKal; human pKal
T1 sequence (P03952 20-390, chain 1 of 2): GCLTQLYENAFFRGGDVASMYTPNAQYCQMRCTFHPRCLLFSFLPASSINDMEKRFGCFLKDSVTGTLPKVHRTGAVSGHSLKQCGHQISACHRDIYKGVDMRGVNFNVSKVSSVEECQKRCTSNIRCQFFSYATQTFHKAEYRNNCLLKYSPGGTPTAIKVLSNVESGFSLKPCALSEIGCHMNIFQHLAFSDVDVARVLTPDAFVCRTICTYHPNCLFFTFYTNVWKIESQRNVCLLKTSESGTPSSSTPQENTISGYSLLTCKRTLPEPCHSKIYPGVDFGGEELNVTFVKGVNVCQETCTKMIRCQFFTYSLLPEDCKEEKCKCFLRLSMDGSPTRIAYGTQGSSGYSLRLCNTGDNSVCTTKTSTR
T1 sequence (P03952 391-638, chain 2 of 2): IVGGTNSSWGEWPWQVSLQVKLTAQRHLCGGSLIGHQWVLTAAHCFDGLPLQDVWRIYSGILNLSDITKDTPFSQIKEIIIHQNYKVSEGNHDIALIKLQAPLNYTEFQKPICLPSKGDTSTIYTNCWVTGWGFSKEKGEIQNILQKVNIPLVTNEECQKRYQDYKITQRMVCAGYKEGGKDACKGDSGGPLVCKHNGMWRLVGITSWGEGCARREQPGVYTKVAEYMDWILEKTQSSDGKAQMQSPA

[2] = molecular target: T1, human plasma kallikrein; experiment: ELISA, biotinylated plasma kallikrein coated on microtiter plate, signal divided by streptavidin background
Source text: Abbreviations used: "T/B" is the ELISA signal obtained using of the "target" (biotinylated plasma kallikrein) divided by the ELISA signal of the "background" (streptavidin); both of which were coated on microtiter plates. "nd" is not determined. The symbol "q" refers to the amber suppressible stop codon (TAG), which is translated as glutamine (Q) in strains of *E. coli* such as the TG1 cells that were used to express the Fab fragments.

[3] = molecular target: T2, human plasma kallikrein (human, UniProt P03952 20-390; P03952 391-638); experiment: cell-based or functional assay
T2 sequence (P03952 20-390, chain 1 of 2): as the sequence (P03952 20-390, chain 1 of 2) above
T2 sequence (P03952 391-638, chain 2 of 2): as the sequence (P03952 391-638, chain 2 of 2) above

[4] = molecular target: T2, human plasma kallikrein; experiment: Ki,app, inhibition of human pKal enzyme activity

B1: M142-H08 (Fab, V domains shown)
VH: EVQLLESGGGLVQPGGSLRLSCAASGFTFSAYSMIWVRQAPGKGLEWVSYIRPSGGRTTYADSVKGRFTISRDNSKNTLYLQMNSLRAEDTAVYYCARGGLLLWFRELKSNYFDYWGQGTLVTVSS
VL: DIQMTQSPSSLSAFVGDRVTITCRASQPIDNYLNWYHQKPGKAPKLLIYAASRLQSGVPSRLSGSGFGTDFTLTISSLQPEDFGNYYCQQSYTVPYTFGGGTKVEIR
notes: Printed HC runs from VH into the start of CH1
- Ki [1]: 0.2 nM
- Human pKal ELISA (T/B) [2]: 29.9 ratio of ELISA signal on target to background (streptavidin)

B2: M137-E12 (Fab, V domains shown)
VH: EVQLLESGGGLVQPGGSLRLSCAASGFTFSDYRMQWVRQAPGKGLEWVSVIVPSGGNTMYADSVKGRFTISRDNSKNTLYLQMNSLRAEDTAVYYCARGGPGSSIAARRAPTGYYGMDVWGQGTTVTVSS
VL: QSVLIQPPSVSGIPGQRVTISCSGNNSNFGSNTVTWYQQLPGTAPKLLIYSDSRRPSGVPDRFSGSRSDTSASLAISGLQSEDEAEYHCAAWDDSLNGVFGGGTKLTVL
notes: as for B1
- Ki [1]: 79 nM
- Human pKal ELISA (T/B) [2]: 4.5 ratio of ELISA signal on target to background (streptavidin)

B3: M162-A04 (Fab, V domains shown)
VH: EVQLLESGGGLVQPGGSLRLSCAASGFTFSHYIMMWVRQAPGKGLEWVSGIYSSGGITVYADSVKGRFTISRDNSKNTLYLQMNSLRAEDTAVYYCAYRRTGIPRRDAFDIWGQGTMVTVSS
VL: DIQMTQSPSTLSASVGDRVTITCRASQSISSWLAWYQQKPGKAPNLLIYKASTLESGVPSRFSGSGSGTEFTLTISSLQPDDFATYYCQQYNTYWTFGQGTKVEIK
notes: Non-germlined Fab discovered using phage display; Printed HC runs from VH into the start of CH1; also called M162-A4; 559A-M162-A4
- Ki [1]: 4.8 nM
- Human pKal ELISA (T/B) [2]: 11.4 ratio of ELISA signal on target to background (streptavidin)

B4: M208-F10 (Fab, V domains shown)
VH: EVQLLESGGGLVQPGGSLRLSCAASGFTFSHYLMTWVRQAPGKGLEWVSYISPSGGHTIYADSVKGRFTISRDNSKNTLYLQMNSLRAEDTAVYYCARVARGIAARSRTSYFDQWGQGTLVTVSS
VL: DIQMTQSPGTLSLSPGERATLSCRTSQFVNSNYLAWYQQTPGQAPRLLIYGASSRATGIPDRFSGTGYGTDFTLTISRLEPEDYGTYYCQQSSRTPWTFGQGTRVEIK
notes: Tested as Fab; printed HC runs into CH1; amber q written Q
- % inhibition at 10 nM [3]: 92.5%
- Ki [4]: 0.2 nM

B5: M160-G12 (Fab, V domains shown)
VH: EVQLLESGGGLVQPGGSLRLSCAASGFTFSHYLMTWVRQAPGKGLEWVSYISPSGGHTIYADSVKGRFTISRDNSKNTLYLQMNSLRAEDTAVYYCARVARGIAARSRTSYFDYWGQGTLVTVSS
VL: DIQMTQSPSFLSASVGDRVTITCRASQGISSYLAWYQQKPGKAPKLLIYAASTLQSGVPSRFSGSGSGTEFTLTISSLQPEDFATYYCQQLNSYPLTFGGGTKVEIK
notes: Printed HC runs from VH into the start of CH1; also called R84-D02 (as IgG)
- Ki [1]: 17 nM
- Human pKal ELISA (T/B) [2]: 38.3 ratio of ELISA signal on target to background (streptavidin)

B6: M208-C06 (Fab, V domains shown)
VH: EVQLLESGGGLVQPGGSLRLSCAASGFTFSHYLMTWVRQAPGKGLEWVSYISPSGGHTIYADSVKGRFTISRDNSKNTLYLQMNSLRAEDTAVYYCARVARGIAARSRTSFIDYWGQGTLVTVSS
VL: DIQMTQSPGTLSLSPGERATLSCRTSQFVNSNYLAWYQQTPGQAPRLLIYGASSRATGIPDRFSGTGYGTDFTLTISRLEPEDYGTYYCQQSSRTPWTFGQGTRVEIK
notes: Tested as Fab; printed HC runs into CH1
- % inhibition at 10 nM [3]: 91.7%
- Ki [4]: 0.4 nM

B7: M208-G03 (Fab, V domains shown)
VH: EVQLLESGGGLVQPGGSLRLSCAASGFTFSHYLMTWVRQAPGKGLEWVSYISPSGGHTIYADSVKGRFTISRDNSKNTLYLQMNSLRAEDTAVYYCARVARGIAARSRTSYLDYWGQGTLVTVSS
VL: DIQMTQSPGTLSLSPGERATLSCRTSQFVNSNYLAWYQQTPGQAPRLLIYGASSRATGIPDRFSGTGYGTDFTLTISRLEPEDYGTYYCQQSSRTPWTFGQGTRVEIK
notes: as for B6
- % inhibition at 10 nM [3]: 93.4%
- Ki [4]: 0.3 nM

B8: M205-D04 (Fab, V domains shown)
VH: EVQLLESGGGLVQPGGSLRLSCAASGFTFSTYKMQWVRQAPGKGLEWVSSISPSGGPTNYADSVKGRFTISRDNSKNTLYLQMNSLRAEDTAVYYCARVARGIAARSRTSYFDYWGQGTLVTVSS
VL: DIQMTQSPGTLSLSPGERATLSCRTSQFVNSNYLAWYQQTPGQAPRLLIYGASSRATGIPDRFSGTGYGTDFTLTISRLEPEDYGTYYCQQSSRTPWTFGQGTRVEIK
notes: as for B4
- % inhibition at 10 nM [3]: 91.5%
- Ki [4]: 0.4 nM

B9: M206-B10 (Fab, V domains shown)
VH: EVQLLESGGGLVQPGGSLRLSCAASGFTFSQYLMAWVRQAPGKGLEWVSSIYPSGGWTKYADSVKGRFTISRDNSKNTLYLQMNSLRAEDTAVYYCARVARGIAARSRTSYFDYWGQGTLVTVSS
VL: DIQMTQSPGTLSLSPGERATLSCRTSQFVNSNYLAWYQQTPGQAPRLLIYGASSRATGIPDRFSGTGYGTDFTLTISRLEPEDYGTYYCQQSSRTPWTFGQGTRVEIK
notes: as for B4
- % inhibition at 10 nM [3]: 94.7%
- Ki [4]: 0.3 nM

B10: M206-F01 (Fab, V domains shown)
VH: EVQLLESGGGLVQPGGSLRLSCAASGFTFSGYMMVWVRQAPGKGLEWVSRISPSGGPTIYADSVKGRFTISRDNSKNTLYLQMNSLRAEDTAVYYCARVARGIAARSRTSYFDYWGQGTLVTVSS
VL: DIQMTQSPGTLSLSPGERATLSCRTSQFVNSNYLAWYQQTPGQAPRLLIYGASSRATGIPDRFSGTGYGTDFTLTISRLEPEDYGTYYCQQSSRTPWTFGQGTRVEIK
notes: as for B6
- % inhibition at 10 nM [3]: 92.6%
- Ki [4]: 0.2 nM

B11: M206-H08 (Fab, V domains shown)
VH: EVQLLESGGGLVQPGGSLRLSCAASGFTFSDYMMAWVRQAPGKGLEWVSSIVPSGGHTHYADSVKGRFTISRDNSKNTLYLQMNSLRAEDTAVYYCARVARGIAARSRTSYFDYWGQGTLVTVSS
VL: DIQMTQSPGTLSLSPGERATLSCRTSQFVNSNYLAWYQQTPGQAPRLLIYGASSRATGIPDRFSGTGYGTDFTLTISRLEPEDYGTYYCQQSSRTPWTFGQGTRVEIK
notes: as for B6
- % inhibition at 10 nM [3]: 96%
- Ki [4]: 0.17 nM

B12: M208-F04 (Fab, V domains shown)
VH: EVQLLESGGGLVQPGGSLRLSCAASGFTFSHYLMTWVRQAPGKGLEWVSYISPSGGHTIYADSVKGRFTISRDNSKNTLYLQMNSLRAEDTAVYYCARVARGIAARSRTSFFDYWGQGTLVTVSS
VL: DIQMTQSPGTLSLSPGERATLSCRTSQFVNSNYLAWYQQTPGQAPRLLIYGASSRATGIPDRFSGTGYGTDFTLTISRLEPEDYGTYYCQQSSRTPWTFGQGTRVEIK
notes: as for B6
- % inhibition at 10 nM [3]: 95.4%
- Ki [4]: 0.2 nM

B13: M208-E10 (Fab, V domains shown)
VH: EVQLLESGGGLVQPGGSLRLSCAASGFTFSHYLMTWVRQAPGKGLEWVSYISPSGGHTIYADSVKGRFTISRDNSKNTLYLQMNSLRAEDTAVYYCARVAQGISARSRTSYFDYWGQGTLVTVSS
VL: DIQMTQSPGTLSLSPGERATLSCRTSQFVNSNYLAWYQQTPGQAPRLLIYGASSRATGIPDRFSGTGYGTDFTLTISRLEPEDYGTYYCQQSSRTPWTFGQGTRVEIK
notes: as for B6
- % inhibition at 10 nM [3]: 93.7%
- Ki [4]: 0.09 nM

B14: M152-A12 (Fab, V domains shown)
VH: EVQLLESGGGLVQPGGSLRLSCAASGFTFSPYFMGWVRQAPGKGLEWVSGIGPSGGSTTYADSVKGRFTISRDNSKNTLYLQMNSLRAEDTAVYYCAREGPPYSSGWYRGLRQYHFDYWGQGTLVTVSS
VL: DIQMTQSPSSLSASVGDRVTITCRASQSISSYLSWYQQRPGKAPNLLIYAASSLQSGVPSRFSGSGSGTDFTLTISSLQPEDFATYYCQQSISIPRTFGQGTKVEVK
notes: as for B1
- Ki [1]: < 100 nM
- Human pKal ELISA (T/B) [2]: 19 ratio of ELISA signal on target to background (streptavidin)

B15: M145-D01 (Fab, V domains shown)
VH: EVQLLESGGGLVQPGGSLRLSCAASGFTFSYYHMSWVRQAPGKGLEWVSVISPSGGSTKYADSVKGRFTISRDNSKNTLYLQMNSLRAEDTAVYYCARGGSSDYAWGSYRRPYYFDYWGQGTLVTVSS
VL: DIQMTQSPATLSLSPGERATLSCRASQSVSSYLAWYQQKPGQAPRLLIYDASNRATGIPARFSGSGSGTDFTLTISSLEPEDFAVYYCQQRSNWPRGFTFGPGTKVDIK
notes: as for B1
- Ki [1]: 1.1 nM
- Human pKal ELISA (T/B) [2]: 6.2 ratio of ELISA signal on target to background (streptavidin)

B16: M161-C11 (Fab, V domains shown)
VH: EVQLLESGGGLVQPGGSLRLSCAASGFTFSDYAMKWVRQAPGKGLEWVSSISSSGGVTQYADSVKGRFTISRDNSKNTLYLQMNSLRAEDTAVYYCAREEDYSSSWYSRRFDYYYGMDVWGQGTTVTVSS
VL: QSALTQPPSVSVSPGQTASITCSGDKLGDKYVSWYQQRPGQSPVLVIYQDTKRPSGIPERFSGSNSGNTATLTISGTQAVDEADYYCQAWDSSTYVFGGGTKVTVL
notes: as for B1
- Ki [1]: 0.3 nM
- Human pKal ELISA (T/B) [2]: 41.8 ratio of ELISA signal on target to background (streptavidin)

B17: M145-D11 (Fab, V domains shown)
VH: EVQLLESGGGLVQPGGSLRLSCAASGFTFSHYRMSWVRQAPGKGLEWVSSIYPSGGRTVYADSVKGRFTISRDNSKNTLYLQMNSLRAEDTAVYYCAKDKFEWRLLFRGIGNDAFDIWGQGTMVTVSS
VL: QSVLTQPPSVSVSPGQTASITCSGDKLGDKYTSWYQQRPGQSPVLVIYQDIKRPSGIPERFSGSNSGNTATLTISGTQAMDEADYYCQAWDSPNARVFGSGTKVTVL
notes: Printed HC runs from VH into the start of CH1; also called 559A-M145-D11; 559A-M0145-D11
- Ki [1]: 0.79 nM
- Human pKal ELISA (T/B) [2]: 40 ratio of ELISA signal on target to background (streptavidin)

B18: M146-E12 (Fab, V domains shown)
VH: EVQLLESGGGLVQPGGSLRLSCAASGFTFSRYIMHWVRQAPGKGLEWVSSISPSGGLTSYADSVKGRFTISRDNSKNTLYLQMNSLRAEDTAVYYCAREFENAYHYYYYGMDVWGQGTTVTVSS
VL: DIQMTQSPSSLSASVGDRVTITCRASGDIGNALGWYQQKPGKAPRLLISDASTLQSGVPLRFSGSGSGTEFTLTISSLQPEDFATYYCLQGYNYPRTFGQGTKLEIR
notes: as for B1
- Ki [1]: 2.2 nM
- Human pKal ELISA (T/B) [2]: 49.6 ratio of ELISA signal on target to background (streptavidin)
